# Source: the Human Domainome abundance scans (Beltran et al. 2025)
# ± gives the uncertainty stated by the source.
# B1: Gamma-crystallin S, residues 96 to 176; numbered along this chain, P22914 (parent)
# chain: IQIFEKGDFSGQMYETTEDCPSIMEQFHMREIHSCKVLEGVWIFYELPNYRGRQYLLDKKEYRKPIDWGAASPAVQSFRRI
# Variants of: B1
# Test: abundance fitness (aPCA) (normalised: wild type 0, dead -1); higher = more abundant; growth selection in yeast, the domain comes from the species named
# Conditions: Homo sapiens
row,Variant,abundance fitness
1,IQIFEKGDFSGQMYETTEDCPSIMEQFHMREIHSCKVLEGVWIFYELPNYRGRQYLLDKKEYRKPIDWGMASPAVQSFRRI [A70M],-0.023 ± 0.13
2,IQIFEKGDFSGQMYETTEDCPSIMEQFHMREIHSCKVLEGVWIFYELPNYRGRQYLLDKKEYRKPIDWGKASPAVQSFRRI [A70K],0.169 ± 0.37
3,IQIFEKGDFSGQMYETTEDCPSIMEQFHMREIHSCKVLEGVWIFYELPNYRGRQYLLDKKEYRKPIDWGFASPAVQSFRRI [A70F],-0.025 ± 0.18
4,IQIFEKGDFSGQMYETTEDCPSIMEQFHMREIHSCKVLEGVWIFYELPNYRGRQYLLDKKEYRKPIDWGQASPAVQSFRRI [A70Q],-0.057 ± 0.14
5,IQIFEKGDFSGQMYETTEDCPSIMEQFHMREIHSCKVLEGVWIFYELPNYRGRQYLLDKKEYRKPIDWGGASPAVQSFRRI [A70G],0.108 ± 0.099
6,IQIFEKGDFSGQMYETTEDCPSIMEQFHMREIHSCKVLEGVWIFYELPNYRGRQYLLDKKEYRKPIDWGYASPAVQSFRRI [A70Y],0.258 ± 0.19
7,IQIFEKGDFSGQMYETTEDCPSIMEQFHMREIHSCKVLEGVWIFYELPNYRGRQYLLDKKEYRKPIDWGVASPAVQSFRRI [A70V],-0.003 ± 0.11
8,IQIFEKGDFSGQMYETTEDCPSIMEQFHMREIHSCKVLEGVWIFYELPNYRGRQYLLDKKEYRKPIDWGWASPAVQSFRRI [A70W],-0.147 ± 0.16
9,IQIFEKGDFSGQMYETTEDCPSIMEQFHMREIHSCKVLEGVWIFYELPNYRGRQYLLDKKEYRKPIDWGIASPAVQSFRRI [A70I],0.111 ± 0.18
10,IQIFEKGDFSGQMYETTEDCPSIMEQFHMREIHSCKVLEGVWIFYELPNYRGRQYLLDKKEYRKPIDWGTASPAVQSFRRI [A70T],-0.037 ± 0.2
11,IQIFEKGDFSGQMYETTEDCPSIMEQFHMREIHSCKVLEGVWIFYELPNYRGRQYLLDKKEYRKPIDWGHASPAVQSFRRI [A70H],0.32 ± 0.27
12,IQIFEKGDFSGQMYETTEDCPSIMEQFHMREIHSCKVLEGVWIFYELPNYRGRQYLLDKKEYRKPIDWGRASPAVQSFRRI [A70R],0.104 ± 0.093
13,IQIFEKGDFSGQMYETTEDCPSIMEQFHMREIHSCKVLEGVWIFYELPNYRGRQYLLDKKEYRKPIDWGPASPAVQSFRRI [A70P],0.042 ± 0.3
14,IQIFEKGDFSGQMYETTEDCPSIMEQFHMREIHSCKVLEGVWIFYELPNYRGRQYLLDKKEYRKPIDWGEASPAVQSFRRI [A70E],-0.004 ± 0.093
15,IQIFEKGDFSGQMYETTEDCPSIMEQFHMREIHSCKVLEGVWIFYELPNYRGRQYLLDKKEYRKPIDWGAQSPAVQSFRRI [A71Q],-0.187 ± 0.3
16,IQIFEKGDFSGQMYETTEDCPSIMEQFHMREIHSCKVLEGVWIFYELPNYRGRQYLLDKKEYRKPIDWGARSPAVQSFRRI [A71R],0.007 ± 0.087
17,IQIFEKGDFSGQMYETTEDCPSIMEQFHMREIHSCKVLEGVWIFYELPNYRGRQYLLDKKEYRKPIDWGAKSPAVQSFRRI [A71K],0.144 ± 0.32

row,Variant,abundance fitness
1,IQIFEKGDFSGQMYETTEDCPSIMEQFHMREIHSCKVLEGVWIFYELPNYRGRQYLLDKKEYRKPIDWGALSPAVQSFRRI [A71L],-0.223 ± 0.17
2,IQIFEKGDFSGQMYETTEDCPSIMEQFHMREIHSCKVLEGVWIFYELPNYRGRQYLLDKKEYRKPIDWGASSPAVQSFRRI [A71S],-0.125 ± 0.12
3,IQIFEKGDFSGQMYETTEDCPSIMEQFHMREIHSCKVLEGVWIFYELPNYRGRQYLLDKKEYRKPIDWGAHSPAVQSFRRI [A71H],0.052 ± 0.33
4,IQIFEKGDFSGQMYETTEDCPSIMEQFHMREIHSCKVLEGVWIFYELPNYRGRQYLLDKKEYRKPIDWGAMSPAVQSFRRI [A71M],0.022 ± 0.13
5,IQIFEKGDFSGQMYETTEDCPSIMEQFHMREIHSCKVLEGVWIFYELPNYRGRQYLLDKKEYRKPIDWGAGSPAVQSFRRI [A71G],0.01 ± 0.14
6,IQIFEKGDFSGQMYETTEDCPSIMEQFHMREIHSCKVLEGVWIFYELPNYRGRQYLLDKKEYRKPIDWGAESPAVQSFRRI [A71E],0.028 ± 0.21
7,IQIFEKGDFSGQMYETTEDCPSIMEQFHMREIHSCKVLEGVWIFYELPNYRGRQYLLDKKEYRKPIDWGACSPAVQSFRRI [A71C],-0.048 ± 0.16
8,IQIFEKGDFSGQMYETTEDCPSIMEQFHMREIHSCKVLEGVWIFYELPNYRGRQYLLDKKEYRKPIDWGADSPAVQSFRRI [A71D],-0.308 ± 0.49
9,IQIFEKGDFSGQMYETTEDCPSIMEQFHMREIHSCKVLEGVWIFYELPNYRGRQYLLDKKEYRKPIDWGAPSPAVQSFRRI [A71P],0.128 ± 0.43
10,IQIFEKGDFSGQMYETTEDCPSIMEQFHMREIHSCKVLEGVWIFYELPNYRGRQYLLDKKEYRKPIDWGAWSPAVQSFRRI [A71W],0.018 ± 0.092
11,IQIFEKGDFSGQMYETTEDCPSIMEQFHMREIHSCKVLEGVWIFYELPNYRGRQYLLDKKEYRKPIDWGAAEPAVQSFRRI [S72E],0.125 ± 0.35
12,IQIFEKGDFSGQMYETTEDCPSIMEQFHMREIHSCKVLEGVWIFYELPNYRGRQYLLDKKEYRKPIDWGAAMPAVQSFRRI [S72M],-0.149 ± 0.19
13,IQIFEKGDFSGQMYETTEDCPSIMEQFHMREIHSCKVLEGVWIFYELPNYRGRQYLLDKKEYRKPIDWGAADPAVQSFRRI [S72D],-0.109 ± 0.32
14,IQIFEKGDFSGQMYETTEDCPSIMEQFHMREIHSCKVLEGVWIFYELPNYRGRQYLLDKKEYRKPIDWGAAFPAVQSFRRI [S72F],-0.066 ± 0.15
15,IQIFEKGDFSGQMYETTEDCPSIMEQFHMREIHSCKVLEGVWIFYELPNYRGRQYLLDKKEYRKPIDWGAACPAVQSFRRI [S72C],-0.107 ± 0.3
16,IQIFEKGDFSGQMYETTEDCPSIMEQFHMREIHSCKVLEGVWIFYELPNYRGRQYLLDKKEYRKPIDWGAAAPAVQSFRRI [S72A],-0.016 ± 0.11
17,IQIFEKGDFSGQMYETTEDCPSIMEQFHMREIHSCKVLEGVWIFYELPNYRGRQYLLDKKEYRKPIDWGAALPAVQSFRRI [S72L],0.002 ± 0.14
